Laboratory results: paper PMC10698503, “Phosphatase specificity principles uncovered by MRBLE:Dephos and global substrate identification” (Molecular Systems Biology, 2023)

Molecular target: His-PP1γ (UniProt P36873)
Test: ITC; peptide (approximately 450 µM, syringe) titrated into PP1γ (~35 µM, cell); 25°C; 50 mM sodium phosphate, 150 mM NaCl, 0.5 mM TCEP, pH 7.5; single-site model

His-PP1γ, sequence (P36873 whole entry): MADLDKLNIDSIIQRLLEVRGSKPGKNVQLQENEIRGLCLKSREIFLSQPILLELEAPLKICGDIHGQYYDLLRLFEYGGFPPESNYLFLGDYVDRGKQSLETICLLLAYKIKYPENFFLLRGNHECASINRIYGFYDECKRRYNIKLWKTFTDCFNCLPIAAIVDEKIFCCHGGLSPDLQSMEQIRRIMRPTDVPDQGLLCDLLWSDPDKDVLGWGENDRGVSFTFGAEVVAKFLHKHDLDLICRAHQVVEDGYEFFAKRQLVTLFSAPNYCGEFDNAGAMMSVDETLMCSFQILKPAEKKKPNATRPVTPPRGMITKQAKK

Kd [µM]	Substance
3.46	Sororin 76-96 pS83 peptide PRRSPRI(pS)…
4.51	Nipp1 197-209 pT202 peptide AKNSRV(pT)FSEDDEIW
1.73	KNL1 1441-1455 pS1448 peptide KLNSKRV(pS)FKLPKDQW
7.24	Sororin 76-96 pS79 peptide PRR(pS)…
